Reference: patent US11906519B2, “Methods for identifying LILRB-blocking antibodies” (THE BOARD OF REGENTS OF THE UNIVERSITY OF TEXAS SYSTEM, priority 2016, dated 2024)

What was measured:
Format in all cases: cell-based, human
[1] = tested on: T cells co-cultured with THP-1 cells; experiment: Tumor cell/T cell co-culture assay; settings: T cells with irradiated THP-1 cells, protein supplemented
Description: Tumor cell/T cell co-culture assay. Human T cells isolated from health donor peripheral blood (PB009-1-0, Allcells) were co-cultured with irradiated (28 Gy) THP-1 cells in a U-bottom 96 well-plate for 3-7 days. Anti-CD3/CD28-coated beads (#11161D, Thermo Fisher), 50 U/ml recombinant human IL-2, and 5 ng/ml recombinant human IL-7 were supplemented to the medium. In some experiments, THP-1 cells were cultured in the upper chamber of transwell inserts (pore size is 3 μM, #09-761-80, Thermo Fisher) for the U-bottom 96 well-plate. For primary AML or B-ALL samples, patient CD3^+ T cells were collected and patient leukemia cells were sorted as CD33^+ and CD19^+ for AML and B-ALL, respectively.
CD8^+ T cells (5×10^4 per well) isolated from hPBMCs of a healthy donor (Interstate Blood Bank) were stimulated with anti-CD3/CD28/CD137-coated beads (11163D, Thermo Fisher) or cultured without stimulation for 2 days in a 96-well plate. Then, 5×10^3 human leukemia THP-1-Luc-GFP cells and 50 to 500 μg/ml anti-LILRB4 antibody C84 or control antibody mIgG were added. Cell numbers were determined on day 7 in triplicate wells. Anti-CD8 and anti-CD28 were used to detect human CTL cells; THP-1 cells were positive for GFP. […]

THP-1 cells = experiment: Transwell trans-endothelial migration of THP-1 cells; settings: lilrb4-KO THP-1, recombinant protein supplemented
MV4-11 cells = experiment: Transwell trans-endothelial migration of MV4-11 cells; settings: lilrb4-KO MV4-11, recombinant protein supplemented
Description: Transwell assay. To test the cell plasticity, 1×10^5 MV4-11 cells were labelled with CFSE (Invitrogen) and treated with 100 μg/ml of anti-LILRB4 antibody C84 or control antibody mIgG and cultured in the upper chamber of well in a transwell plate (Corning). After 18 h, cells in lower chamber were counted. To test the ability of AML cells to migrate through endothelial cells, 3×10^5 human umbilical vein endothelial cells (HUVEC) cells were cultured on the transwell membrane. After 3 days, 1×10^5 CFSE-labelled MV4-11 cells were seeded in the upper chamber with 100 μg/ml of C84 or mIgG. After 18 h, cells in lower chamber were counted.

B1: arginase-1: recombinant Arginase-1 protein supplemented to culture (protein, UniProt P05089 1-322, looked up)
Arginase-1: MSAKSRTIGIIGAPFSKGQPRGGVEEGPTVLRKAGLLEKLKEQECDVKDYGDLPFADIPNDSPFQIVKNPRSVGKASEQLAGKVAEVKKNGRISLVLGGDHSLAIGSISGHARVHPDLGVIWVDAHTDINTPLTTTSGNLHGQPVSFLLKELKGKIPDVPGFSWVTPCISAKDIVYIGLRDVDPGEHYILKTLGIKYFSMTEVDRLGIGKVMEETLSYLLGRKKRPIHLSFDVDGLDPSFTPATGTPVVGGLTYREGLYITEEIYKTGLLSGLDIMEVNPSLGKTPEEVTRTVNTAVAITLACFGLAREGNHKPIDYLNPPK
- T cell proliferation in coculture [1]: decreased
- Migration ability of THP-1 cells across endothelial cells (THP-1 cells): increased
- Migration ability of MV4-11 cells across endothelial cells (MV4-11 cells): increased
